From paper PMC3954913 (Molecular microbiology, 2014)

Target: T1, pallilysin (Tp0751_C24-P237) (Treponema pallidum, UniProt O83732 24-237)
T1 sequence (looked up): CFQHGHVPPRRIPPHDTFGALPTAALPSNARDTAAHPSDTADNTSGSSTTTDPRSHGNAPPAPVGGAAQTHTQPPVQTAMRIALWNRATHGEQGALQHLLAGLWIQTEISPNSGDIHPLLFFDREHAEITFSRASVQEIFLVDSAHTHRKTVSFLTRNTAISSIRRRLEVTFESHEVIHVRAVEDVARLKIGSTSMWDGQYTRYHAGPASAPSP
Test: dynamic light scattering

B1: recombinant Tp0750_G23-D223 (natural protein, UniProt O83731 23-223, looked up)
chain: GERTVPVDIFLMIDKSRSMQEPGKFSSLHRWVRDEFVSSMTIQGDWITVYQFYEKPEELITLTLRSEQDRDKIISVVDSIVPNGRYTDIGRALDTVWEIQEKRKDNNRHKVLLLVTDLEHDAPLTSKYRGKQRSFQSPYLVRARRVKHDNWYEITLDMAVHDRVAHTARELYRSIAAAHSKRPTPTPPAKESSPRYTPSLD
binding result: binds
